System: Mouse Neural Stem Cells
Assay: Neuronal differentiation (β-III Tubulin) of adult mouse neural stem cells
Assay type: cell-based
Details: 1 nM, 7 days
Protocol: Adult mouse neurosperes were dissociated with trypsin (Gibco) into single cells and transferred to poly-D-Lysine plates (BD) in the above culture medium, without growth factors, supplemented with 1% Fetal Calf Serum (Gibco). The cells were incubated over night to adhere to the plate. The medium was changed to culture medium, without growth factors, supplemented with 1 nM PDGF-AA or PDFG-BB (both from R&D Systems). The medium with new substance added every second day. The cells were incubated for a total of 7 days.
The cells were washed two times with PBS (Gibco) and fixed for 15 min RT with 4% Formaldehyde (Sigma) and permeabilized 20 min RT in 0.1% Triton X-100 (Sigma) in PBS. After fixation and permeabilization the cells were labelled with mouse monoclonal anti-β-III Tubulin (1:500 Promega). Primary antibody was visualized with anti mouse Texas-Red (1:100 Vector Laboratories). All antibodies were diluted in PBS with 0.1% Triton X-100.
The cells were washed twice with PBS (Gibco) and lysed with 200 ul lysis buffer/well. The lysis buffer contained PBS, 0.1% Triton X-100, 1 mM EDTA and 1 tab1. Protease inhibitor cocktail (Roche). The samples were run on a 4-12% Bis-Tris gel (Novex) under reduced conditions with MOPS buffer (Novex) and blotted onto a Hybond ECL nitrocellulose membrane (Amersham Biotech). Blocked in 5% ECL-Block (Amersham Biotech) in PBS+0.1% Tween 20 (Sigma). The membranes were labelled with mouse monoclonal anti-β-III Tubulin (1:5000 Promega). The primary antibody was detected using a secondary antibody anti-mouse-HRP (1:10000 Amersham Biotech) and ECL Plus+ Western Blot Detection Kit (Amersham Biotech). All antibodies were diluted in PBS with 0.1% Triton X-100, 1% ECL Block. The signal were then captured on ECL Hyper Film (Amersham Biotech)

B1: PDGF-BB: human recombinant PDGF-BB, platelet derived growth factor B-chain homodimer (protein)
chain: SLGSLTIAEPAMIAECKTRTEVFEISRRLIDRTNANFLVWPPCVEVQRCSGCCNNRNVQCRPTQVQLRPVQVRKIEIVRKKPIFKKATVTLEDHLACKCETVAAARPVT
In the case of B1, the “number of β-III Tubulin positive cells in culture” value (compared to the control, FIG. 5) is reported as “significantly increase the number of β-III Tubulin positive cells”, the “levels of β-III Tubulin protein (Western blot)” value (compared with the control, FIG. 6) is reported as “significantly increased levels of β-III Tubulin protein” and the “neuronal differentiation of cultured mouse neural stem cells/progenitors” value (FIG. 5 and FIG. 6) is reported as “trigger neuronal differentiation”.
